Data published in publication doi:10.1101/359695.

How the values were obtained:
[1] = biological target: reconstituted 26S proteasome with Cy3-labeled base (Rpt1-I191AzF-Cy3) (S. cerevisiae) (UniProt P33299); assay: FRET or BRET
[2] = biological target: reconstituted 26S proteasome (S. cerevisiae), all wild-type components (S. cerevisiae) (UniProt P33299)

| Substance | FRET amplitude of tail insertion, percent of that of the 35-residue tail [1] | other results |
| --- | --- | --- |
| ubiquitinated titin-I27^V15P-1 (1 AA tail), acceptor-labeled (from UniProt P0CG63 1-76) | 16% | – |
| ubiquitinated titin-I27^V15P-35 modified with Cy5 on its unstructured tail (from UniProt P0CG63 1-76) | – | time constant of tail insertion (FRET change) [1]: 1.6 s |
| ubiquitinated 5-FAM-titin-I27^V15P-35 (from UniProt P0CG63 1-76) | – | KM of multiple-turnover degradation (Michaelis-Menten, anisotropy of 5-FAM) [2]: 0.22 µM |
| ubiquitinated titin-I27^V15P-11 (11 AA tail), acceptor-labeled (from UniProt P0CG63 1-76) | 25% | – |
